Assays:
5HT3a = target: T1, 5HT3a (Homo sapiens, UniProt P46098); assay: Ion channel panel (IonWorks Barracuda): 5HT3a; format: cell-based
T1 construct: host or cells: HEK293 or CHO
T1 sequence (P46098 whole entry, looked up): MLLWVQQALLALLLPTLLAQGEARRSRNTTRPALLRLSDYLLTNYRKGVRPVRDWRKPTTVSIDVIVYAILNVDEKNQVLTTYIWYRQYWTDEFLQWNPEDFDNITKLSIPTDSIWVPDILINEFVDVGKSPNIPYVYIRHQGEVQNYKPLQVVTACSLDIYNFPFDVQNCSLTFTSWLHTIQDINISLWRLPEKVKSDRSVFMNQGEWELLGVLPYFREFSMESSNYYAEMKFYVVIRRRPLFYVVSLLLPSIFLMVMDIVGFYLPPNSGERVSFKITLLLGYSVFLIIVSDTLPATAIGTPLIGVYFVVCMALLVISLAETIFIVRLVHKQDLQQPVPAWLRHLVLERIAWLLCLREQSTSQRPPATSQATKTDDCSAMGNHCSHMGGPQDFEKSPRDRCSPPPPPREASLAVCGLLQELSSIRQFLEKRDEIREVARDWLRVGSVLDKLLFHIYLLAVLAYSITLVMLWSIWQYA
Experimental: (§1) This example describes a method for assaying ion channel activity in cells.
(§2) Peptides were screened in duplicate at final concentrations of 20 μM and 200 nM, as determined by amino acid analysis, and diluted into HEPES buffered physiological saline (HBPS). HEK293 or CHO cells from the American Type Culture Collection (ATCC) were transfected with the appropriate ion channel before use. HEK293 cells were grown in Dulbecco's Modified Eagle Medium/Nutrient Mixture F-12, and CHO cells were cultured in Ham's F-12 media. All cultures were supplemented with 10% fetal bovine serum, 100 U/ml penicillin G, 100 μg/ml streptomycin sulfate, and the appropriate selection antibiotics. Prior to use, cells were washed twice with Hank's Balanced Salt Solution, and treated with Accutase cell detachment solution (Sigma-Aldrich). Cells were then washed. Peptides and controls were incubated with cells for at least five minutes.
(§3) Percent inhibition was defined as: (1-(Ipeptide/Icontrol))×100%).
(§4) Percent values were calculated using the following formula: % activation=(IPeptide/Icontrol)×100%, where IPeptide is the current produced by co-application a peptide with agonist, and Icontrol refers to the current produced by stimulation in control. Control used for each ion channel is the reference compound matched to a particular channel, as illustrated in TABLE 10 below.

α3β4 = target: T2, α3β4 (Homo sapiens, UniProt P30926+P32297); assay: Ion channel panel (IonWorks Barracuda): α3β4; format: cell-based; details: 100% = no change, <100% = inhibition
T2 construct: host or cells: HEK293 or CHO
Experimental: as §1, §2, §3, §4

α4β2 = target: T3, α4β2 (Homo sapiens, UniProt P17787+P43681); assay: Ion channel panel (IonWorks Barracuda): α4β2; format: cell-based; details: 100% = no change, <100% = inhibition
T3 construct: host or cells: HEK293 or CHO
Experimental: as §1, §2, §3, §4

Cav2.1 = target: T4, Cav2.1 (Homo sapiens, UniProt O00555); assay: cell-based; details: 100% = no change, <100% = inhibition
T4 construct: host or cells: HEK293 or CHO
Experimental: as §1, §2, §3, §4

Cav2.2 = target: T5, Cav2.2 (Homo sapiens, UniProt Q00975); assay: cell-based; details: 100% = no change, <100% = inhibition
T5 construct: host or cells: HEK293 or CHO
Experimental: as §1, §2, §3, §4

Kv2.1 = target: T6, Kv2.1 (Homo sapiens, UniProt Q14721); assay: cell-based; details: 100% = no change, <100% = inhibition
T6 construct: host or cells: HEK293 or CHO
Experimental: as §1, §2, §3, §4

GABA = assay: Ion channel panel (IonWorks Barracuda): GABA; format: cell-based; details: 100% = no change, <100% = inhibition
Experimental: as §1, §2, §3, §4

Nav1.5 = Nav1.5 (Homo sapiens, UniProt Q14524); assay: in vitro; details: 100% = no change; for Activity of Nav1.5 with peptide, expressed as a percentage of the reference compound: peptide at 0.2 μM; for Activity of Nav1.5 with peptide (percentage of the reference compound): peptide at 20 μM
Experimental: as §1, §2, §3, §4

hERG = hERG (Homo sapiens, UniProt Q12809); assay: in vitro; details: 100% = no change, <100% = inhibition
Experimental: as §1, §2, §3, §4

Kir2.1 = target: T7, Kir2.1 (Homo sapiens, UniProt P63252); assay: Ion channel panel (IonWorks Barracuda): Kir2.1; format: cell-based; details: 100% = no change, <100% = inhibition
T7 construct: host or cells: HEK293 or CHO
Experimental: as §1, §2, §3, §4

Kv1.1 = target: T8, Kv1.1 (Homo sapiens, UniProt Q09470); assay: cell-based; format: cell-based; details: 100% = no change, <100% = inhibition
T8 construct: host or cells: HEK293 or CHO
Experimental: as §1, §2, §3, §4

Kv1.2 = target: T9, Kv1.2 (Homo sapiens, UniProt P16389); assay: cell-based; format: cell-based; details: 100% = no change, <100% = inhibition
T9 construct: host or cells: HEK293 or CHO
Experimental: as §1, §2, §3, §4

Kv1.3 = target: T10, Kv1.3 (Homo sapiens, UniProt P22001); assay: cell-based; format: cell-based; details: 100% = no change, <100% = inhibition
T10 construct: host or cells: HEK293 or CHO
Experimental: as §1, §2, §3, §4

Nav1.7 = target: T11, Nav1.7 (Homo sapiens, UniProt Q15858); assay: cell-based; format: cell-based; details: 100% = no change; for Activity of Nav1.7 with peptide, expressed as a percentage of the reference compound: peptide at 0.2 μM; for Activity of Nav1.7 with peptide (percentage of the reference compound): peptide at 20 μM
T11 construct: host or cells: HEK293 or CHO
Experimental: as §1
as §2, with “Peptides were screened in duplicate at final concentrations of 20 μM and 200 nM, as determined by amino acid analysis, and diluted into HEPES buffered physiological saline (HBPS).” left out
as §3, §4

NR2A = target: T12, NR2A (Homo sapiens, UniProt Q12879); assay: Ion channel panel (IonWorks Barracuda): NR2A; format: cell-based; details: 100% = no change, <100% = inhibition
T12 construct: host or cells: HEK293 or CHO
Experimental: as §1, §2, §3, §4

NR2B = target: T13, NR2B (Homo sapiens, UniProt Q13224); assay: Ion channel panel (IonWorks Barracuda): NR2B; format: cell-based; details: 100% = no change, <100% = inhibition
T13 construct: host or cells: HEK293 or CHO
Experimental: as §1, §2, §3, §4

TRPA1 = target: T14, TRPA1 (Homo sapiens, UniProt O75762); assay: Ion channel panel (IonWorks Barracuda): TRPA1; format: cell-based; details: 100% = no change, <100% = inhibition
T14 construct: host or cells: HEK293 or CHO
Experimental: as §1, §2, §3, §4

TRPV1 = target: T15, TRPV1 (Homo sapiens, UniProt Q8NER1); assay: Ion channel panel (IonWorks Barracuda): TRPV1; format: cell-based; details: 100% = no change, <100% = inhibition
T15 construct: host or cells: HEK293 or CHO
Experimental: as §1, §2, §3, §4

[1] = first of two Nav1.5 columns (probably TP1)
[2] = second of two Nav1.5 columns (probably TP2)
[3] = first of two Nav1.7 columns (probably TP1)
[4] = second of two Nav1.7 columns (probably TP2)

Sequence of Nav1.5 (Q14524 whole entry): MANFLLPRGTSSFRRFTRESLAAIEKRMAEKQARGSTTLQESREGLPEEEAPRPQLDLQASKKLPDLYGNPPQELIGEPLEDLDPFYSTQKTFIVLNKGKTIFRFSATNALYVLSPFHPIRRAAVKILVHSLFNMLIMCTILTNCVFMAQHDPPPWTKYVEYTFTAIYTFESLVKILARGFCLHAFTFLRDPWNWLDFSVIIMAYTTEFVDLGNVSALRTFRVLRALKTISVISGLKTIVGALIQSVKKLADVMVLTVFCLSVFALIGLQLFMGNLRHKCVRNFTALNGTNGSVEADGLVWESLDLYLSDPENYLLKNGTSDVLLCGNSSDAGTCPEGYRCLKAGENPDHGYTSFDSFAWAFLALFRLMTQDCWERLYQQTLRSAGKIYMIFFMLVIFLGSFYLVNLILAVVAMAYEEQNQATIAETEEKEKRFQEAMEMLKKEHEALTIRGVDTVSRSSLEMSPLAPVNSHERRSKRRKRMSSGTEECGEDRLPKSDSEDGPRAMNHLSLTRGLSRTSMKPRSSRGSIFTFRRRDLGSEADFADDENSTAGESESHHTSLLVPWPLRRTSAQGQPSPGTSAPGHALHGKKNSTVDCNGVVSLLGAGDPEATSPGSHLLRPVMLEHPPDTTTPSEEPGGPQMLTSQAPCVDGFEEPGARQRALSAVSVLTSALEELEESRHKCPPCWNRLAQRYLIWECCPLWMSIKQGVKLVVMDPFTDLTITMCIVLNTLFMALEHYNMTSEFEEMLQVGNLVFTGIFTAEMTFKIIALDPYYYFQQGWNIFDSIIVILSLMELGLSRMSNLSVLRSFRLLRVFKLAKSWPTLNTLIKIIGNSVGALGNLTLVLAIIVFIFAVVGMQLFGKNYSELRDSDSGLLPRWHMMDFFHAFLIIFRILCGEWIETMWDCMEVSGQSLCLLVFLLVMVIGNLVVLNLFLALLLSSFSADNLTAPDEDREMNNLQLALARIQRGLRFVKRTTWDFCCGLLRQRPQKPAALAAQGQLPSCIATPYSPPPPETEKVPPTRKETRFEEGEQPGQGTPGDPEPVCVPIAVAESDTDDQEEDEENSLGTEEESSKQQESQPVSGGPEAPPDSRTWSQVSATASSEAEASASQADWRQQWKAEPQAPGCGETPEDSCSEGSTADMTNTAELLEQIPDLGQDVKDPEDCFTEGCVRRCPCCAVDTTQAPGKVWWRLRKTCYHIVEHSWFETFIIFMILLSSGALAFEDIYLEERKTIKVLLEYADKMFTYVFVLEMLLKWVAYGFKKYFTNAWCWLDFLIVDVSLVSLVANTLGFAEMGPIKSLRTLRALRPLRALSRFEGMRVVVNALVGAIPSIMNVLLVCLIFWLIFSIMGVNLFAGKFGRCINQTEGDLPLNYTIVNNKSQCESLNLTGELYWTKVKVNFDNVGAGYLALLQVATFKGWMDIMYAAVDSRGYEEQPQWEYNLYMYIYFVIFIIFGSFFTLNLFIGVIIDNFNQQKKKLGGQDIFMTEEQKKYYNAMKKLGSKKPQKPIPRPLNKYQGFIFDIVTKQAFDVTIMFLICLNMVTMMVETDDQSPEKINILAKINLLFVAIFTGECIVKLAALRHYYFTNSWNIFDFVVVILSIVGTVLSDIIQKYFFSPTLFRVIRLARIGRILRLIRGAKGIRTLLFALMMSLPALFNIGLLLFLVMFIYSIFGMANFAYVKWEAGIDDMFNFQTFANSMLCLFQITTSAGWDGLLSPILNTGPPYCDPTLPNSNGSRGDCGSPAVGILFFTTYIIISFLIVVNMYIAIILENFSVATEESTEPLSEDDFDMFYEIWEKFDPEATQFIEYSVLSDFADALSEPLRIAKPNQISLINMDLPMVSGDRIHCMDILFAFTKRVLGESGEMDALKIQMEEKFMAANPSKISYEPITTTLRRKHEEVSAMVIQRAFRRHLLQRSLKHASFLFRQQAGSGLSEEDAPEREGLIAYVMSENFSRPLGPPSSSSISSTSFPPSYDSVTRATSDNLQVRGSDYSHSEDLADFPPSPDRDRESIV
T11 sequence (Q15858 whole entry): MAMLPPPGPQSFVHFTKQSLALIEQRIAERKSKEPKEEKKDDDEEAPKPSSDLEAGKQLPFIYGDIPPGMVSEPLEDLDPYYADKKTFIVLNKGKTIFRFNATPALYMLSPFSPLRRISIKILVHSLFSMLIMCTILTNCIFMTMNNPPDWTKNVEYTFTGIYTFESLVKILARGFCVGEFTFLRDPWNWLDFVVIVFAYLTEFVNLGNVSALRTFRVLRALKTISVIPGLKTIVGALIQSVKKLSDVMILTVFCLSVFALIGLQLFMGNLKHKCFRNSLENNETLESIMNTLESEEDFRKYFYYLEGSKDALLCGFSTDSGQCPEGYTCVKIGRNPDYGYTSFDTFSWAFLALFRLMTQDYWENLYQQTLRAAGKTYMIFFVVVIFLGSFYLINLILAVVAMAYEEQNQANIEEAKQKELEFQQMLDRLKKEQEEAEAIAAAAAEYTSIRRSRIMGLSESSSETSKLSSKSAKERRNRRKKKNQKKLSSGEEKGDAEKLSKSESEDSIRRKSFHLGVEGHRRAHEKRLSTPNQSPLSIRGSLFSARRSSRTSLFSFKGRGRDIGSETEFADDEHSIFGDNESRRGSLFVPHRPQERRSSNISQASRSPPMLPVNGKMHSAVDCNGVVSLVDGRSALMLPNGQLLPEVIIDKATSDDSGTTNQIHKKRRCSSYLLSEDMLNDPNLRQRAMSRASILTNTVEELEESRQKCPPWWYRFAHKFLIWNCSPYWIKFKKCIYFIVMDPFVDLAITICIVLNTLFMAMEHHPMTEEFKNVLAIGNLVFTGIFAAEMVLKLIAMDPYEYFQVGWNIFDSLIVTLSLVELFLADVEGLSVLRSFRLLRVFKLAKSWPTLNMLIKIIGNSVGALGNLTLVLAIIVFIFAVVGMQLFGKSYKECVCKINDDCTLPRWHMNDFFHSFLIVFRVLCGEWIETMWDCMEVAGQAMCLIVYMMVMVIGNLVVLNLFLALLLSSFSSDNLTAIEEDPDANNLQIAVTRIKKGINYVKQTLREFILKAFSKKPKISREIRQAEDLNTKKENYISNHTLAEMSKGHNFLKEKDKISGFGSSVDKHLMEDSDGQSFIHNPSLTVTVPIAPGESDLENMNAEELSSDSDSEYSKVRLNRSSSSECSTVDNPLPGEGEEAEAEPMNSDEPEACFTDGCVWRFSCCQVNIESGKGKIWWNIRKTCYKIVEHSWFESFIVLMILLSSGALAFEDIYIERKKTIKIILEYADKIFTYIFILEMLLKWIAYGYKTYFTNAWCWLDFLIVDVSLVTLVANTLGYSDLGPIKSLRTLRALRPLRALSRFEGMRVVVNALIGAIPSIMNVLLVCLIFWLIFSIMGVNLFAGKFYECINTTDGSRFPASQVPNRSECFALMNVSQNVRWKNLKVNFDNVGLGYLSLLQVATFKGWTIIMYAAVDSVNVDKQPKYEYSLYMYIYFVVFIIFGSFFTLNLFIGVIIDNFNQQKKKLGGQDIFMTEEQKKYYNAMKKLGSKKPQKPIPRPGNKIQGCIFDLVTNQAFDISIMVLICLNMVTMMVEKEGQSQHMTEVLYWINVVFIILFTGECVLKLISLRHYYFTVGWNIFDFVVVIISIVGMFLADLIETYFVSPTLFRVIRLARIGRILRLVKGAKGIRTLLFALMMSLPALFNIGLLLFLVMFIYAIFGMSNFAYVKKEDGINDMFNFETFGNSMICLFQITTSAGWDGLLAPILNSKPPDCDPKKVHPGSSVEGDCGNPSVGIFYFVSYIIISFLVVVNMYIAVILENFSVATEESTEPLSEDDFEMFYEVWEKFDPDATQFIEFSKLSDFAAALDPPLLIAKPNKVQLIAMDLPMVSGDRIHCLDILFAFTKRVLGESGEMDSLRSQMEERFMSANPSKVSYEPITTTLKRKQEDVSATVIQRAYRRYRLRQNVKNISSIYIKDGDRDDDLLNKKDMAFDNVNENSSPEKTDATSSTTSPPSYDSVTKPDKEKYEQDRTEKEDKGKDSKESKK
T9 sequence (P16389 whole entry): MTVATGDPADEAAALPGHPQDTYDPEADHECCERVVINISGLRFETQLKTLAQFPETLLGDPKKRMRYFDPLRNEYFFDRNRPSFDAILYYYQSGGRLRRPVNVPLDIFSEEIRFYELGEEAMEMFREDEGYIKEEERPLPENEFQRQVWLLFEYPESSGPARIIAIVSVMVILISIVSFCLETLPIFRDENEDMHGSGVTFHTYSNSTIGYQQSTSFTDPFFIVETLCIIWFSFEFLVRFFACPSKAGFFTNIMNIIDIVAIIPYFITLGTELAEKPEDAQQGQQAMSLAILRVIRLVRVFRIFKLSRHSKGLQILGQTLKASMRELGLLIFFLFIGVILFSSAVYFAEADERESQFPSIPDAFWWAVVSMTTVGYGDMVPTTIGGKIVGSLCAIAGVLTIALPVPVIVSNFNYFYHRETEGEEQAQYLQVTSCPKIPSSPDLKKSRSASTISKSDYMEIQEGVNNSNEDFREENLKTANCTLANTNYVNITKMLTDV
T7 sequence (P63252 whole entry): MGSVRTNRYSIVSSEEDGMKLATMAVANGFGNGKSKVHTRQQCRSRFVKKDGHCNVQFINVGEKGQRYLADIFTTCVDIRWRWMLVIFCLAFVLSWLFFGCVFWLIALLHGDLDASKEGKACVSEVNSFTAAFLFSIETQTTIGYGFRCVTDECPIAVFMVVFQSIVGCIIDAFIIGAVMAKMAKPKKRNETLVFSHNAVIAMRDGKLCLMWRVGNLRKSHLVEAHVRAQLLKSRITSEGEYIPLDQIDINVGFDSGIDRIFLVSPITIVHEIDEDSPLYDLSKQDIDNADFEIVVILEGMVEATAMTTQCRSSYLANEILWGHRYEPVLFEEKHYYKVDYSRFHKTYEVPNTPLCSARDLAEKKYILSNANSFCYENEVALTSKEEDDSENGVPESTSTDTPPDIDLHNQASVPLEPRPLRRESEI

3 (GSSEKDCIKHLQRCRENKDCCSKKCSRRGTNPEKRCR) [compound 3]
Activity of 5HT3a with peptide (percentage of the reference compound) (5HT3a): 98%
Activity of 5HT3a with peptide, expressed as a percentage of the reference compound (5HT3a): 109%
Activity of a3b4 with peptide, expressed as a percentage of the reference compound (α3β4; peptide at 0.2 μM): 99%
Activity of a3b4 with peptide (percentage of the reference compound) (α3β4; peptide at 20 μM): 92%
Activity of a4b2 with peptide, expressed as a percentage of the reference compound (α4β2; peptide at 0.2 μM): 93%
Activity of a4b2 with peptide (percentage of the reference compound) (α4β2; peptide at 20 μM): 91%
Activity of Cav2.1 with peptide, expressed as a percentage of the reference compound (Cav2.1; peptide at 0.2 μM): 102%
Activity of Cav2.1 with peptide (percentage of the reference compound) (Cav2.1; peptide at 20 μM): 131%
Activity of Cav2.2 with peptide, expressed as a percentage of the reference compound (Cav2.2; peptide at 0.2 μM): 103%
Activity of Cav2.2 with peptide (percentage of the reference compound) (Cav2.2; peptide at 20 μM): 110%
Activity of Kv2.1 with peptide, expressed as a percentage of the reference compound (Kv2.1; peptide at 0.2 μM): 80%
Activity of Kv2.1 with peptide (percentage of the reference compound) (Kv2.1; peptide at 20 μM): 81%
Activity of GABA with peptide, expressed as a percentage of the reference compound (GABA; peptide at 0.2 μM): 77%
Activity of GABA with peptide (percentage of the reference compound) (GABA; peptide at 20 μM): 111%
Activity of Nav1.5 with peptide, expressed as a percentage of the reference compound (Nav1.5; [1]): 113%
Activity of Nav1.5 with peptide, expressed as a percentage of the reference compound (Nav1.5; [2]): 111%
Activity of Nav1.5 with peptide (percentage of the reference compound) (Nav1.5; [1]): 114%
Activity of Nav1.5 with peptide (percentage of the reference compound) (Nav1.5; [2]): 115%
Activity of hERG with peptide, expressed as a percentage of the reference compound (hERG; peptide at 0.2 μM): 121%
Activity of hERG with peptide (percentage of the reference compound) (hERG; peptide at 20 μM): 81%
Activity of Kir2.1 with peptide, expressed as a percentage of the reference compound (Kir2.1; peptide at 0.2 μM): 107%
Activity of Kir2.1 with peptide (percentage of the reference compound) (Kir2.1; peptide at 20 μM): 93%
Activity of Kv1.1 with peptide, expressed as a percentage of the reference compound (Kv1.1; peptide at 0.2 μM): 99%
Activity of Kv1.1 with peptide (percentage of the reference compound) (Kv1.1; peptide at 20 μM): 73%
Activity of Kv1.2 with peptide, expressed as a percentage of the reference compound (Kv1.2; peptide at 0.2 μM): 88%
Activity of Kv1.2 with peptide (percentage of the reference compound) (Kv1.2; peptide at 20 μM): 45%
Activity of Kv1.3 with peptide, expressed as a percentage of the reference compound (Kv1.3; peptide at 0.2 μM): 92%
Activity of Kv1.3 with peptide (percentage of the reference compound) (Kv1.3; peptide at 20 μM): 87%
Activity of Nav1.7 with peptide, expressed as a percentage of the reference compound (Nav1.7; [3]): 107%
Activity of Nav1.7 with peptide, expressed as a percentage of the reference compound (Nav1.7; [4]): 113%
Activity of Nav1.7 with peptide (percentage of the reference compound) (Nav1.7; [3]): 90%
Activity of Nav1.7 with peptide (percentage of the reference compound) (Nav1.7; [4]): 68%
Activity of NR2A with peptide, expressed as a percentage of the reference compound (NR2A; peptide at 0.2 μM): 97%
Activity of NR2A with peptide (percentage of the reference compound) (NR2A; peptide at 20 μM): 100%
Activity of NR2B with peptide, expressed as a percentage of the reference compound (NR2B; peptide at 0.2 μM): 93%
Activity of NR2B with peptide (percentage of the reference compound) (NR2B; peptide at 20 μM): 74%
Activity of TRPA1 with peptide, expressed as a percentage of the reference compound (TRPA1; peptide at 0.2 μM): 105%
Activity of TRPA1 with peptide (percentage of the reference compound) (TRPA1; peptide at 20 μM): 117%
Activity of TRPV1 with peptide, expressed as a percentage of the reference compound (TRPV1; peptide at 0.2 μM): 107%
Activity of TRPV1 with peptide (percentage of the reference compound) (TRPV1; peptide at 20 μM): 95%
